Results: publication PMC8406658

What was measured:
[1] = target: ACE2 (angiotensin-converting enzyme II receptor), full length, expressed on U937 cells (human) (UniProt Q9BYF1); assay: adhesion frequency assay (micropipette)
[2] = target: Fc-tagged ACE2 recombinant protein (human) (UniProt Q9BYF1); assay: BLI

SARS2-RBD^WT (receptor-binding domain of the SARS-CoV-2 spike, residues 333-527) (domain or fragment; other documents disagree on this pair)
koff [1]: 0.0569 s⁻¹ | Kd [2]: 66.7 nM | koff [2]: 0.0121 s⁻¹ | kon [2]: 181000 M⁻¹ s⁻¹
